According to patent US20240043489A1, “Cytokine Prodrugs Comprising a Cleavable Linker” (Trutino Biosciences Inc., priority 2020, published 2024):
“And” between values parts separate entries of the source, which are not always exact repeats. Identical values can stand only once. Like-named read-outs stand apart in the source and are kept apart here.

Legend:
heparin [1] = conditions: Note 1, cited from earlier work
Collagen type I = Collagen type I (Homo sapiens, UniProt P02452+P08123); conditions: binds to Collagen type I; Note 1 of Table 2; cited from earlier work
Sequence of Collagen type I (P02452 162-1218 limits assumed): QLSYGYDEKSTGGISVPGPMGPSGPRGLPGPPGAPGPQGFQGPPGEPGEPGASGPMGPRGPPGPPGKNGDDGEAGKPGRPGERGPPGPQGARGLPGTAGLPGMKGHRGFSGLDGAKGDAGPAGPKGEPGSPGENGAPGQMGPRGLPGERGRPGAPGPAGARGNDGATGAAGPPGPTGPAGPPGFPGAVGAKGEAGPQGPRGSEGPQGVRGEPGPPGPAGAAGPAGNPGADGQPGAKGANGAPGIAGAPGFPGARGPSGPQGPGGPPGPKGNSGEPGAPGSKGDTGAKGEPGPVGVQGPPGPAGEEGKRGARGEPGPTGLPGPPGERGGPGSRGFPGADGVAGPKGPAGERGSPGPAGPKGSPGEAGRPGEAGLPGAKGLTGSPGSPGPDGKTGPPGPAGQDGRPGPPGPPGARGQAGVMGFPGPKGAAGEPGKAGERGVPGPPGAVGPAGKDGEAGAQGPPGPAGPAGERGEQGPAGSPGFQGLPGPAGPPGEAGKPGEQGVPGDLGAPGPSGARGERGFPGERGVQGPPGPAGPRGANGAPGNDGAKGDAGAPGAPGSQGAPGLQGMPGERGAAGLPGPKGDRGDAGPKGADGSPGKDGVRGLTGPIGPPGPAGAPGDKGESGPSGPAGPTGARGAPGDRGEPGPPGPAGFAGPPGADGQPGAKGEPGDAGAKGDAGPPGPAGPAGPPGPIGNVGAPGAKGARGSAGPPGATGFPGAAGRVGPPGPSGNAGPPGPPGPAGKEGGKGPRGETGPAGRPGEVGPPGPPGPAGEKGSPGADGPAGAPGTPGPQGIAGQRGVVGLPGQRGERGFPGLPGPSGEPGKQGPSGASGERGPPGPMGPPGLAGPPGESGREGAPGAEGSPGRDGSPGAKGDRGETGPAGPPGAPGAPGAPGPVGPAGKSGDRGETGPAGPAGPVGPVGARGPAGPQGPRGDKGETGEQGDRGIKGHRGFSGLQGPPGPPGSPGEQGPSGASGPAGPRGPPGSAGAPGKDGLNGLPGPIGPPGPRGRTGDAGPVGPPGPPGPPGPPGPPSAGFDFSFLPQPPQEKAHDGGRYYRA
Sequence of Collagen type I (P08123 80-1119 limits assumed): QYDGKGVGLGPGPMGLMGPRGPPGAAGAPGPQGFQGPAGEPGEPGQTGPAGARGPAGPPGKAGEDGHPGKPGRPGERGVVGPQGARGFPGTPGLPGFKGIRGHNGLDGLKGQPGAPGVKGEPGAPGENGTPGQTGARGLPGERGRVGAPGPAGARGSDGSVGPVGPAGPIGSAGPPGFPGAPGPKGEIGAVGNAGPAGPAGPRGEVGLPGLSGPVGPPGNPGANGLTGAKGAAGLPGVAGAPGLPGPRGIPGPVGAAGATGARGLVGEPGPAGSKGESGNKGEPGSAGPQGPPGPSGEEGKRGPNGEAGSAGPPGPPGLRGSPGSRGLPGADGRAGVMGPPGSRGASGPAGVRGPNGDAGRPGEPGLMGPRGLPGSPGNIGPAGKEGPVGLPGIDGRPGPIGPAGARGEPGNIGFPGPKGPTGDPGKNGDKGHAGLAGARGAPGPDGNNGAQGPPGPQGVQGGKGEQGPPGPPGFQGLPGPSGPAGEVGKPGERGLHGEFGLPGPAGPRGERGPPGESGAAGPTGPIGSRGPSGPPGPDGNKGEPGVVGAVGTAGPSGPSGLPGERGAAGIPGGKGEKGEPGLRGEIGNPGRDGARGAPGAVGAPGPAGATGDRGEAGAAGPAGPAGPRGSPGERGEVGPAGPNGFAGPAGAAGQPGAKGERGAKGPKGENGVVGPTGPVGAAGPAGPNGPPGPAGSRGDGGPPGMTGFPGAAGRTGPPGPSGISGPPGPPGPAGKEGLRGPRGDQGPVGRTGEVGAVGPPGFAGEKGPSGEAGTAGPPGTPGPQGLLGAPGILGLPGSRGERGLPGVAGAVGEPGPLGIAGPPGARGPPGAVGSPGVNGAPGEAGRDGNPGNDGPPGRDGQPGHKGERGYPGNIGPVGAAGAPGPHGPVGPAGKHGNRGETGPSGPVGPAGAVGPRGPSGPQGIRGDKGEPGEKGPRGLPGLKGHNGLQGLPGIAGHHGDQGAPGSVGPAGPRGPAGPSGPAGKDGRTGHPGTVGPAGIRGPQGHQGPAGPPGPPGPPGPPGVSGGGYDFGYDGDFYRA

HEK-Blue™ IL-2 cells = assay: HEK-Blue IL2 reporter assay (SEAP, OD630); format: cell-based; conditions: Table 5C
Experimental: Recombinant MMP9 and/or MMP2 (R&D Systems) was first activated with p-aminophenylmercuric acetate and this activated protease or equivalent amount of activating solution without the protease was used to digest or mock digest the fusion protein for 1 hr, 2 hr, 4 hr and overnight (18-22 hr) at 37 C. Cleavage assays are set up in TCNB buffer: 50 mM Tris, 10 mM CaCl2), 150 mM NaCl, 0.05% Brij-35 (w/v), pH 7.5. Digested protein was aliquoted and stored at −80° C. prior to testing. Aliquots of digests were subsequently analyzed by SDS-PAGE followed by Western blotting to evaluate the extent of cleavage. Digests were also assessed in functional assays such as CTLL-2 proliferation and HEK-Blue Interleukin reporter assays. As shown in FIGS. 2A-E, essentially complete cleavage by MMP9 protease of the fusion proteins with functional site is seen after overnight incubation. In contrast, proteins containing a scrambled MMP cleavage site are not cut (FIG. 2E). HEK-Blue™ IL-2 cells are specifically designed to monitor the activation of the JAK-STAT pathway induced by IL-2. Indeed, stimulation with human or murine IL-2 triggers the JAK/STAT5 pathway and induces secreted embryonic alkaline phosphatase (SEAP) production. SEAP can be readily monitored when using QUANTI-Blue™, a SEAP detection medium. These cells respond to human and murine IL-2. For the HEK Blue assay, untreated and digested samples are titrated and added to 50 000 HEK Blue cells per well in 200 ul medium in a 96-well plate and incubated at 37C in 5% CO2 for 20-24 hr. The following day, levels of SEAP are measured by adding 20 uL of cell supernatant to QuantiBlue reagent, followed by 1-3 h incubation at 37C and reading absorbance at 630 nm. FIGS. 3C-J, 3Q-Y and Table 5B-5C show results obtained from IL2 fusion proteins tested in HEK Blue IL2 assay.

B16F10 melanoma = assay: In vivo efficacy of retention linker IL-2 drugs in B16F10 syngeneic model (Example 17); parameters: species or system mice
Experimental: (§1) In a first efficacy study, C57BL/6 mice were subcutaneously inoculated with B16F10 melanoma cells and when the average tumor volume reached on average 70-90 mm^3, animals were randomized into 5 groups based on tumor volumes (n=6 mice per treatment group). Mice were dosed intravenously every 3 days (Q3D) for a total of 5 doses according to following design:
as §1, with “second” for “first”, “study in the same model,” for “study,”
On Day 20, mice received an additional dose of drug, animals were sacrificed 24 hrs later and tissues and blood (processed to serum) were collected and stored at −80C for further testing. […] This is most likely due to the higher levels of both circulating drugs in serum and resident drug in TME, which can exert prolonged anti-tumor activity even after an extended dosing holiday.

fibronectin = fibronectin (Homo sapiens, UniProt P02751); assay: IL-2 fusion protein plate binding assay to fibronectin
Sequence of fibronectin (P02751 32-2477, species assumed): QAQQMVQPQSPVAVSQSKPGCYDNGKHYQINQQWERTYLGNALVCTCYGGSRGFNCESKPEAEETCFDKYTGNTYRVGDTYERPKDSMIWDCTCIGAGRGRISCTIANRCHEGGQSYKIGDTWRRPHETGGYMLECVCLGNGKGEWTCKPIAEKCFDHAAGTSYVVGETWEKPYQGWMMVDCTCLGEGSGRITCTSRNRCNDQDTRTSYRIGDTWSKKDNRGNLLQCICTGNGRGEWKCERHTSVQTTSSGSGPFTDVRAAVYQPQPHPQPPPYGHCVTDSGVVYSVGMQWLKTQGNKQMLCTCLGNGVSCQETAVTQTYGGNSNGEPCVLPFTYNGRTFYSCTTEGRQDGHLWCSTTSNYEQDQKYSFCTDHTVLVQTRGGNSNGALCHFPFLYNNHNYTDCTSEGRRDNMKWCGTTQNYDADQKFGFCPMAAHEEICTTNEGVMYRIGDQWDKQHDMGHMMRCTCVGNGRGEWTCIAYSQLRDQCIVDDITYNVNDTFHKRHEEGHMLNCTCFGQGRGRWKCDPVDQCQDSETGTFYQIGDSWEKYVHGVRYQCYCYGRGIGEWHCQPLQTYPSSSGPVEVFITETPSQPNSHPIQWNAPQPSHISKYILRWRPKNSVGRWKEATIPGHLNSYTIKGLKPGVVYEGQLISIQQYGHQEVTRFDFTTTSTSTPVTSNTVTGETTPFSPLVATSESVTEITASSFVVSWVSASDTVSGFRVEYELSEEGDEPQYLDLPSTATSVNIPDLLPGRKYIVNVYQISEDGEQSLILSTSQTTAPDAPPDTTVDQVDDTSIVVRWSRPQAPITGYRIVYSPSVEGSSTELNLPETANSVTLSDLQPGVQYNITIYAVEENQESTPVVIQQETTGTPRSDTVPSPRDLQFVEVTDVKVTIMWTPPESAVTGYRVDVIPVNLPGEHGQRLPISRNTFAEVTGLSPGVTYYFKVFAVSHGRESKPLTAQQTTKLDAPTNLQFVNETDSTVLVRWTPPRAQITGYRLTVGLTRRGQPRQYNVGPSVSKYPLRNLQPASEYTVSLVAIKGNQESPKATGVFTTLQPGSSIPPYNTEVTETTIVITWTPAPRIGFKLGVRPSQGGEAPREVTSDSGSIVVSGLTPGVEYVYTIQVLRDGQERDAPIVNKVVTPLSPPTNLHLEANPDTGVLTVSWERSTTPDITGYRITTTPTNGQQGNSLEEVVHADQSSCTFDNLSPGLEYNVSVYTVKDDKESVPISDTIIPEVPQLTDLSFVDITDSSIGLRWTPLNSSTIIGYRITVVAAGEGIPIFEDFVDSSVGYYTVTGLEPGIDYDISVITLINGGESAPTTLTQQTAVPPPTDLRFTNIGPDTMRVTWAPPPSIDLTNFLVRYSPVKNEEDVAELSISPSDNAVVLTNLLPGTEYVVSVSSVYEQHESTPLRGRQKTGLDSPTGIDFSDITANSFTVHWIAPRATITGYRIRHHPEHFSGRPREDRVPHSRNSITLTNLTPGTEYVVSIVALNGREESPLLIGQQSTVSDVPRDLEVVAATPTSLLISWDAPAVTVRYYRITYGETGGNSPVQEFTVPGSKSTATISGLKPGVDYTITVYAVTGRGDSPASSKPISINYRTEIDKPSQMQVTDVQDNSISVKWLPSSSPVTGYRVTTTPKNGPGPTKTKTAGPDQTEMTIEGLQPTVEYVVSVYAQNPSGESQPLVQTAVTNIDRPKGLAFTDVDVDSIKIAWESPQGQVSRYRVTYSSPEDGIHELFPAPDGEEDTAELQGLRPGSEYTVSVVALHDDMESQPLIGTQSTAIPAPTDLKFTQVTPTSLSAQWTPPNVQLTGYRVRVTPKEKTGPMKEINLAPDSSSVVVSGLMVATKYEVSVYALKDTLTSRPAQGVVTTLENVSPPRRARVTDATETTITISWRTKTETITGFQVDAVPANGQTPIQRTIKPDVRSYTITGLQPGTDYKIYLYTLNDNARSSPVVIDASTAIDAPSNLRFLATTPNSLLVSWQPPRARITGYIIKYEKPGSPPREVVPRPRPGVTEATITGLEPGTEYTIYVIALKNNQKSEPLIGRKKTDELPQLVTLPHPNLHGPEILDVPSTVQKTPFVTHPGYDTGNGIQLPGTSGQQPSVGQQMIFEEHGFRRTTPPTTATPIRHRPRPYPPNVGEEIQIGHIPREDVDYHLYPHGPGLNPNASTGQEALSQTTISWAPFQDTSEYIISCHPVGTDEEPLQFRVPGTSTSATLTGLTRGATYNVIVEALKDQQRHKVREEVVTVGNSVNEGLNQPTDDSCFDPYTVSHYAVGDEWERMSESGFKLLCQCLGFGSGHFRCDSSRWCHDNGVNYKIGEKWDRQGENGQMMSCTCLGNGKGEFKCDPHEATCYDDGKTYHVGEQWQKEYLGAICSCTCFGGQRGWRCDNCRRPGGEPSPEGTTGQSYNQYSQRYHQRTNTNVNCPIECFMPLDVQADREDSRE
Experimental: A similar plate-based assay was developed to interrogate binding of IL-2 fusion variants to fibronectin. 96-well plates were coated with 4 ug/mL of fibronectin (Sigma) or control BSA for 18-22 h at room temperature on shaker (350 rpm). After washing, wells are blocked with protein-free blocking buffer (Pierce) for 90 min, then fusion proteins are titrated in blocking buffer-0.1% Tween 20 pH 7.5 and/or pH 6 and added for 1 hr at room temperature with shaking. After washing, an anti-mouse IL-2 biotin-labelled detection antibody (JES6-5H4, ThermoFisher) is added and binding is detected using Ultra Streptavidin HRP (ThermoFisher). The plate was developed by adding the chromogenic tetramethylbenzidine substrate (Ultra TMB, ThermoFisher). The reaction is stopped by addition of 0.5M H2SO4 and the absorbance is read at 450-650 nm.

[2] = Full-length drug levels in serum by ELISA; format: in vivo, mice; conditions: Construct Y 20 mg/kg Day 21 (8 days after last IV) vs Construct B 20 mg/kg Day 17 (4 days after)
Experimental: We developed an ELISA assay to detect and quantify fusion proteins comprising IL-2 and IL-2Rα moieties. Wells of a 96-well plate are coated overnight with 100 uL of a rat anti-mouse IL-2 monoclonal antibody (JES6-1A12; ThermoFisher) at […] in PBS. After washing, wells are blocked with TBS/0.05% Tween 20/1% BSA, then fusion proteins and/or unknown biological samples are added for 1 hr at room temperature. After washing, an anti-mouse IL-2Rα biotin-labelled detection antibody (BAF2438, R&D systems) is added and binding is detected using Ultra Strepavidin HRP (ThermoFisher). The ELISA plate was developed by adding the chromogenic tetramethylbenzidine substrate (Ultra TMB, ThermoFisher). The reaction is stopped by addition of 0.5M H2SO4 and the absorbance is read at 450-650 nm.
Additional serum samples collected at Day 17 (Construct B 20 mg/kg) and Day 21 (Construct Y 20 mg/kg), 4 days and 8 days respectively after the last IV injection, were assayed for full-length IL-2 fusion drug.

heparin [3] = assay: IL-2 fusion protein plate binding assay to Heparin-BSA conjugate; conditions: pH 6 vs pH 7.5, plate assay
Experimental: 96-well plates were coated with 25 ug/mL of Heparin-BSA conjugate (provided by Dr. Mueller, Boerhinger Ingelheim) or control BSA for 18-22 h at room temperature on shaker (350 rpm). After washing, wells are blocked with PBS-0.05% Tween 20/1% BSA for 90 min, then fusion proteins are titrated in 1% BSA/PBS-0.05% Tween 20 pH 7.5 and/or pH 6 and added for 2 hr at room temperature with shaking. After washing, an anti-mouse IL-2 biotin-labelled detection antibody (JES6-5H4, ThermoFisher) is added and binding is detected using Ultra Strepavidin HIRP (ThermoFisher). The plate was developed by adding the chromogenic tetramethylbenzidine substrate (Ultra TMB, ThermoFisher). The reaction is stopped by addition of 0.5M H2SO4 and the absorbance is read at 450-650 nm.

[4] = cleaved with MMP9, read-out: +MMP EC50

Molecule: 642 (KHAHLKKQVSDHIAVY) [Construct 642]
- affinity of binding to heparin at low pH (heparin [1]): binds to heparin at low pH (high affinity)

Molecule: 643 (TTEPSEEHNHHK) [Construct 643]
- affinity of binding to heparin at low pH (heparin [1]): binds to heparin at low pH (low affinity)

Molecule: 193 (WREPSFCALS) [Construct 193]
- Kd (Collagen type I): 100000 nM

Molecule: 196 (WREPSFCALS) [Construct 196]
- Kd (Collagen type I): 100000 nM

Molecule: 189 (RRANAALKAGELYKSILYGC) [Construct 189]
- Kd (Collagen type I): 860 nM

Molecule: 644 (KHAHL) [Construct 644]
- affinity of binding to heparin at low pH (heparin [1]): binds to heparin at low pH (lower affinity)

Molecule: 191 (MIVIELGTNPLKSSGIENGAFQGMKK) [Construct 191]
- Kd (Collagen type I): 394 nM

Molecule: 646 (TTEPSEEHNHHKHHDK) [Construct 646]
- affinity of binding to heparin at low pH (heparin [1]): binds to heparin at low pH (lower affinity)

Molecule: 647 (HKGQHR) [Construct 647]
- affinity of binding to heparin at low pH (heparin [1]): binds to heparin at low pH (lower affinity)

Molecule: 197 (HVWMQAPGGGK) [Construct 197]
- Kd (Collagen type I): 61000 nM

Molecule: 650 (KKRPPTWRHNV) [Construct 650]
- binding to heparin, pH dependence (heparin [1]): binds to heparin at low pH

Molecule: 649 (GGKVEHRVKKRPPTWRHNVRAKYT) [Construct 649]
- binding to heparin, pH dependence (heparin [1]): binds to heparin at low pH

Molecule: 645 (TTEPSEEHNHHK) [Construct 645]
- affinity of binding to heparin at low pH (heparin [1]): binds to heparin at low pH (lower affinity)

Molecule: 648 (KVEHRVKKRPPTWRHNVRAKYT) [Construct 648]
- binding to heparin, pH dependence (heparin [1]): binds to heparin at low pH

Molecule: 194 (TKKTLRT) [Construct 194]
- Kd (Collagen type I): ≤ 100000 nM

Molecule: 195 (CPKESCNLFVLKD) [Construct 195]
- Kd (Collagen type I): 681 nM

Molecule: 192 (LRELHLNNN) [Construct 192]
- Kd (Collagen type I): 170 nM

B1: Construct EE: SEQ ID NO 815: m IL2-SGG-GGWSHW-MMPcs1-2x(G4S)-mIL2Ra(1-215)-mu IgG1 Fc (protein)
chain: APTSSSTSSSTAEAQQQQQQQQQQQQHLEQLLMDLQELLSRMENYRNLKLPRMLTFKFYLPKQATELKDLQCLEDELGPLRHVLDLTQSKSFQLEDAENFISNIRVTVVKLKGSDNTFECQFDDESATVVDFLRRWIAFCQSIISTSPQSGGGGWSHWGPLGVRGGGGGSGGGGSELCLYDPPEVPNATFKALSYKNGTILNCECKRGFRRLKELVYMRCLGNSWSSNCQCTSNSHDKSRKQVTAQLEHQKEQQTTTDMQKPTQSMHQENLTGHCREPPPWKHEDSKRIYHFVEGQSVHYECIPGYKALQRGPAISICKMKCGKTGWTQPQLTCVDEREHHRFLASEESQGSRNSSPESETSCPITTTDFPQPTETTAMTETFVLTMEYKGCKPCICTVPEVSSVFIFPPKPKDVLTITLTPKVTCVVVDISKDDPEVQFSWFVDDVEVHTAQTQPREEQFNSTFRSVSELPIMHQDWLNGKEFKCRVNSAAFPAPIEKTISKTKGRPKAPQVYTIPPPKEQMAKDKVSLTCMITDFFPEDITVEWQWNGQPAENYKNTQPIMDTDGSYFVYSKLNVQKSNWEAGNTFTCSVLHEGLHNHHTEKSLSHSPGK
- EC50 (HEK-Blue™ IL-2 cells; [4]): 0.0066 nM
- EC50 (HEK-Blue™ IL-2 cells; uncleaved, read-out: −MMP EC50): 1.18 nM
- TGI (%) D 15 (B16F10 melanoma; 10 mg/kg IV Q3D, 5 doses): 39.32%
- TGI (%) D 20 (B16F10 melanoma; 10 mg/kg, 7 days following the fifth dose): 37.61%
- fibronectin binding at acidic pH (fibronectin; pH 6): preferentially binds fibronectin at acidic pH
- fibronectin binding at pH 7.5 (fibronectin; pH 7.5 (neutral)): no binding is observed

B2: Construct Y: SEQ ID NO 809: m IL2(C140S)-VRIQRKKEKMKET-MMPcs1-2x(G4S)-mIL2Ra (1-215)-mu IgG1 Fc (protein)
chain: APTSSSTSSSTAEAQQQQQQQQQQQQHLEQLLMDLQELLSRMENYRNLKLPRMLTFKFYLPKQATELKDLQCLEDELGPLRHVLDLTQSKSFQLEDAENFISNIRVTVVKLKGSDNTFECQFDDESATVVDFLRRWIAFSQSIISTSPQVRIQRKKEKMKETGPLGVRGGGGGSGGGGSELCLYDPPEVPNATFKALSYKNGTILNCECKRGFRRLKELVYMRCLGNSWSSNCQCTSNSHDKSRKQVTAQLEHQKEQQTTTDMQKPTQSMHQENLTGHCREPPPWKHEDSKRIYHFVEGQSVHYECIPGYKALQRGPAISICKMKCGKTGWTQPQLTCVDEREHHRFLASEESQGSRNSSPESETSCPITTTDFPQPTETTAMTETFVLTMEYKIEGRMDGCKPCICTVPEVSSVFIFPPKPKDVLTITLTPKVTCVVVDISKDDPEVQFSWFVDDVEVHTAQTQPREEQFNSTFRSVSELPIMHQDWLNGKEFKCRVNSAAFPAPIEKTISKTKGRPKAPQVYTIPPPKEQMAKDKVSLTCMITDFFPEDITVEWQWNGQPAENYKNTQPIMDTDGSYFVYSKLNVQKSNWEAGNTFTCSVLHEGLHNHHTEKSLSHSPGK
- EC50 (HEK-Blue™ IL-2 cells; [4]): 0.0109 nM
- EC50 (HEK-Blue™ IL-2 cells; uncleaved, read-out: −MMP EC50): 1.23 nM
- drug levels in circulation relative to Construct B [2]: more than 10 fold
- TGI (%) D 13 (B16F10 melanoma; 20 mg/kg IV Q3D, 5 doses): 77% and 76.59%
- heparin binding (qualitative) (heparin [3]): bind heparin in dose-dependent manner and with higher affinity than Construct B

B3: Construct AA: SEQ ID NO 811: m IL2-SGG-FHRRIKA-MMPcs1-2x(G4S)-mIL2Ra(1-215)-mu IgG1 Fc (protein)
chain: APTSSSTSSSTAEAQQQQQQQQQQQQHLEQLLMDLQELLSRMENYRNLKLPRMLTFKFYLPKQATELKDLQCLEDELGPLRHVLDLTQSKSFQLEDAENFISNIRVTVVKLKGSDNTFECQFDDESATVVDFLRRWIAFCQSIISTSPQSGGFHRRIKAGPLGVRGGGGGSGGGGSELCLYDPPEVPNATFKALSYKNGTILNCECKRGFRRLKELVYMRCLGNSWSSNCQCTSNSHDKSRKQVTAQLEHQKEQQTTTDMQKPTQSMHQENLTGHCREPPPWKHEDSKRIYHFVEGQSVHYECIPGYKALQRGPAISICKMKCGKTGWTQPQLTCVDEREHHRFLASEESQGSRNSSPESETSCPITTTDFPQPTETTAMTETFVLTMEYKGCKPCICTVPEVSSVFIFPPKPKDVLTITLTPKVTCVVVDISKDDPEVQFSWFVDDVEVHTAQTQPREEQFNSTFRSVSELPIMHQDWLNGKEFKCRVNSAAFPAPIEKTISKTKGRPKAPQVYTIPPPKEQMAKDKVSLTCMITDFFPEDITVEWQWNGQPAENYKNTQPIMDTDGSYFVYSKLNVQKSNWEAGNTFTCSVLHEGLHNHHTEKSLSHSPGK
- EC50 (HEK-Blue™ IL-2 cells; [4]): 0.0109 nM
- EC50 (HEK-Blue™ IL-2 cells; uncleaved, read-out: −MMP EC50): 0.442 nM
